Experimental findings from patent publication US20190359693A1 are described below.

Positions count from the first letter of the chain named.

B1: SD1074 (VHH)
VHH: EVQLVESGGGLVQAGGSLRLSCAASRNFDAIGAMGWYRQAPGKQRELVAEITSDGSTNYTDSVKGRFTISRDNALRTMYLQMNALEPEDTAVYYCKADISIYGLTNFPYWGQGTQVTVSS
B2: SD1072 (VHH)
VHH: EVQLVESGGGLVEAGGSLRLSCAVSGRTFSMYATGWFRQAPGKEREFVAAINSSGDKTTYADSVEGRFTISRDIGTVYLQMNNLNPEDTAVYYCAAARTLAVVTIPGGYEYWGQGTQVTVSS
B3: SD1018 (VHH)
VHH: EVQLVESGGGLVQAGGSLRLSCAASGQTYHMGWFRQTPGNERESVAAVTWSGAVTRYADSVKGRFTISRDNAKNTVYLQMNSLVPEDTAIYYCAATRSMAPIIQLSPGSYDYWGPGTQVTVSS
B4: SD1035 (VHH)
VHH: EVQLVESGGGLVQAGGTLRLSCAASGSAVSISRMAWYRQAPGKQRELVADIFSGGGTNYADSVKGRFTISRDNAKNTVDLQMNSLKPEDTAVYYCSARSAVAAIHWDQYDYWGQGTQVTVSS
B5: SD1027 (VHH)
VHH: EVQLVESGGGMVQAGGSLRLSCAASGGTFSLYHMGWFRQAPGEEREFVAAISGSGGNTYYADSVKGRFTISRDNNKNTVYLQMSSLEPEDTAVYFCAAMKWPGILRDANAYDYWGQGTQVTVSS
B6: SD1071 (VHH)
VHH: EVQLVESGGGLVQTGESLRLSCAFSGFTYSTYWMYWVRQGPEKGLKWVSSTNAAGTVTYYAANVRDRFTASKDNAKNTLYLQMNRLKPEDTGLYYCASKDGLIVAATLDDYDYRGQGTQVTVSS
B7: SD1047 (VHH)
VHH: EVQLVESGGGLVQAGGSLRISCAASGRTYAMAWFRQAPGKEREFVAHINALGTRTYYSDSVKDRFTISRDNAKNTEYLQMNSLKPEDTAVYYCVAGGQWRAAPVAAAESYDFWGQGTQVTVSS
B8: SD3078 (VHH)
VHH: EVQLVESGGGVVQPGGSLRLSCAASISIFDIYAMDWYRQAPGKQRELVSVSFRDGSTYYADSVKGRFTISRDNSKNTLYLQMNSLRAEDTAVYYCHVSLYRDPLGVAGGLGVYWGQGTLVTVSS
B9: SD3089 (VHH)
VHH: B8 VHH with D35H
B10: SD3080 (VHH)
VHH: B8 VHH with S49A, A87P
B11: MD2309 (bispecific antibody)
chain: EVQLVESGGGLVQAGDSLRISCAASGRTLSIYSMGWFRQAPGKEREFVATIGWNSGRTFYPDSLKGRFTISRDNARNTLYLQMNNLRPEDTAVYYCAAAKGPLRLSSQADYWGQGTQVTVSSGGGGSGGGGSEVQLVESGGGLVQAGDSLRLSCAASGPTFGMSAMGWFRQAPGKEREFVAAISGLGNPNYSDDVKGRFTISRENGRNTVYLQMNSLKPEDTAVYYCAQRKVYHVQGGDRPQAYDYWGQGTQVTVSSGGGGSGGGGSEVQLVESGGGLVQPGGSLRLSCAATGFTLENKAIGWFRQTPGSEREGVLCISKSGSWTYYTDSMRGRFTISRDNAENTVYLQMDSLKPEDTAVYYCATTTAGGGLCWDGTTFSRLASSWGQGTQVTVSS
B12: MD2307 (bispecific antibody)
chain: EVQLVESGGGLVQPGGSLRLSCAATGFTLENKAIGWFRQTPGSEREGVLCISKSGSWTYYTDSMRGRFTISRDNAENTVYLQMDSLKPEDTAVYYCATTTAGGGLCWDGTTFSRLASSWGQGTQVTVSSGGGGSGGGGSEVQLVESGGGLVQAGDSLRISCAASGRTLSIYSMGWFRQAPGKEREFVATIGWNSGRTFYPDSLKGRFTISRDNARNTLYLQMNNLRPEDTAVYYCAAAKGPLRLSSQADYWGQGTQVTVSSGGGGSGGGGSEVQLVESGGGLVQAGDSLRLSCAASGPTFGMSAMGWFRQAPGKEREFVAAISGLGNPNYSDDVKGRFTISRENGRNTVYLQMNSLKPEDTAVYYCAQRKVYHVQGGDRPQAYDYWGQGTQVTVSS
B13: MD2311 (bispecific antibody)
chain: EVQLVESGGGLVQAGDSLRLSCAASGPTFGMSAMGWFRQAPGKEREFVAAISGLGNPNYSDDVKGRFTISRENGRNTVYLQMNSLKPEDTAVYYCAQRKVYHVQGGDRPQAYDYWGQGTQVTVSSGGGGSGGGGSEVQLVESGGGLVQPGGSLRLSCAATGFTLENKAIGWFRQTPGSEREGVLCISKSGSWTYYTDSMRGRFTISRDNAENTVYLQMDSLKPEDTAVYYCATTTAGGGLCWDGTTFSRLASSWGQGTQVTVSSGGGGSGGGGSEVQLVESGGGLVQAGDSLRISCAASGRTLSIYSMGWFRQAPGKEREFVATIGWNSGRTFYPDSLKGRFTISRDNARNTLYLQMNNLRPEDTAVYYCAAAKGPLRLSSQADYWGQGTQVTVSS
B14: MD2308 (bispecific antibody)
chain: EVQLVESGGGLVQAGDSLRISCAASGRTLSIYSMGWFRQAPGKEREFVATIGWNSGRTFYPDSLKGRFTISRDNARNTLYLQMNNLRPEDTAVYYCAAAKGPLRLSSQADYWGQGTQVTVSSGGGGSGGGGSEVQLVESGGGLVQPGGSLRLSCAATGFTLENKAIGWFRQTPGSEREGVLCISKSGSWTYYTDSMRGRFTISRDNAENTVYLQMDSLKPEDTAVYYCATTTAGGGLCWDGTTFSRLASSWGQGTQVTVSSGGGGSGGGGSEVQLVESGGGLVQAGDSLRLSCAASGPTFGMSAMGWFRQAPGKEREFVAAISGLGNPNYSDDVKGRFTISRENGRNTVYLQMNSLKPEDTAVYYCAQRKVYHVQGGDRPQAYDYWGQGTQVTVSS
B15: MD2310 (bispecific antibody)
chain: EVQLVESGGGLVQPGGSLRLSCAATGFTLENKAIGWFRQTPGSEREGVLCISKSGSWTYYTDSMRGRFTISRDNAENTVYLQMDSLKPEDTAVYYCATTTAGGGLCWDGTTFSRLASSWGQGTQVTVSSGGGGSGGGGSEVQLVESGGGLVQAGDSLRLSCAASGPTFGMSAMGWFRQAPGKEREFVAAISGLGNPNYSDDVKGRFTISRENGRNTVYLQMNSLKPEDTAVYYCAQRKVYHVQGGDRPQAYDYWGQGTQVTVSSGGGGSGGGGSEVQLVESGGGLVQAGDSLRISCAASGRTLSIYSMGWFRQAPGKEREFVATIGWNSGRTFYPDSLKGRFTISRDNARNTLYLQMNNLRPEDTAVYYCAAAKGPLRLSSQADYWGQGTQVTVSS
B16: MD2314 (bispecific antibody)
chain: EVQLVESGGGLVQAGDSLRLSCAASGPTFGMSAMGWFRQAPGKEREFVAAISGLGNPNYSDDVKGRFTISRENGRNTVYLQMNSLKPEDTAVYYCAQRKVYHVQGGDRPQAYDYWGQGTQVTVSSGGGGSGGGGSEVQLVESGGGLVQAGDSLRLSCAASGPTFGMSAMGWFRQAPGKEREFVAAISGLGNPNYSDDVKGRFTISRENGRNTVYLQMNSLKPEDTAVYYCAQRKVYHVQGGDRPQAYDYWGQGTQVTVSSGGGGSGGGGSEVQLVESGGGLVQPGGSLRLSCAATGFTLENKAIGWFRQTPGSEREGVLCISKSGSWTYYTDSMRGRFTISRDNAENTVYLQMDSLKPEDTAVYYCATTTAGGGLCWDGTTFSRLASSWGQGTQVTVSS

In the first test the target is HA of H1N1 A/New Caledonia/20/1999 (influenza A virus). Description: cell-based or functional assay.
In the case of B1, the VNA titer was determined as 113 nM.
Molecule B2 showed a VNA titer of 78.5 nM.
B3: the VNA titer was more than 1000 nM.
B4 gave a VNA titer of 74.8 nM.
Still for that read-out and setting: in the case of B5 it was 862 nM.
With B6, the VNA titer was found to be 1260 nM.

The target of the next test is HA of H3N2 A/Brisbane/10/2007 (influenza A virus). Nature of the test: cell-based or functional assay.
B1 yielded a VNA titer of more than 1000 nM.
Same read-out and setting: in the case of B2 it was more than 1000 nM.
Still for that read-out and setting: the same measure for B3: more than 1000 nM; for B5: more than 1000 nM.
Same read-out and setting: in the case of B6 it was more than 1000 nM.

In another test the target is HA of H5N1 A/Vietnam/1194/04 (influenza A virus). Description: cell-based or functional assay.
Molecule B1 gave a VNA titer of 638 nM.
The same measure, in the same setting: in the case of B2 it was 444 nM; in that of B3, 615 nM; in that of B7, more than 1000 nM.
In turn, B5 came in with a VNA titer of more than 1000 nM.
Molecule B6 displayed a VNA titer of 111 nM.

The next test addresses HA of H7N3 A/NIBRG/60 (A/mallard/NL/12/00) (influenza A virus). Description: cell-based or functional assay.
B1 registered a VNA titer of more than 1000 nM.
Still for that read-out and setting: in the case of B2 it was more than 1000 nM; in that of B3, more than 1000 nM.
Still for that read-out and setting: in the case of B4 it was more than 1000 nM; in that of B7, 510 nM.
Regarding B5, the VNA titer is more than 1000 nM.
B6 came in with a VNA titer of more than 1000 nM.

The target of another test is hemagglutinin (HA) of influenza A/Brisbane/10/07 (H3N2) (influenza A virus A/Brisbane/10/07 (H3N2)). Description: cell-based or functional assay.
With B8, the VNA IC50 came to 632 nM.
With B9, the VNA IC50 is 1190 nM.
In the case of B10, the VNA IC50 worked out at 632 nM.

For the next test, the target named is hemagglutinin (HA) of influenza A/New Caledonia/20/99 (H1N1) (influenza A virus A/New Caledonia/20/99 (H1N1)). Nature of the test: cell-based or functional assay.
For B8, the VNA IC50 turned out to be 8 nM.
B9 returned a VNA IC50 of 3 nM.
Still for that read-out and setting: the same measure for B10: 5 nM.

A further test deals with hemagglutinin (HA) of influenza A/Vietnam/1194/04 (H5N1) (influenza A virus A/Vietnam/1194/04 (H5N1)). Description: cell-based or functional assay.
Take B8: the VNA IC50 was found to be 20 nM.
On the same count and under the same terms, in the case of B9 it was 20 nM; in that of B10, 16 nM.

In the next test the target is hemagglutinin (HA) of influenza virus H3N2 A/Brisbane/10/07 (influenza A virus). Description: cell-based or functional assay.
In turn, B11 registered an average neutralization titer of 12.8 nM.
B12 came in with an average neutralization titer of 30.4 nM.
B13 registered an average neutralization titer of 21.6 nM.
As to B14, the average neutralization titer came to 15.3 nM.
The molecule B15 had an average neutralization titer of 25.5 nM.
For B16, the average neutralization titer is more than 1000 nM.

For the next test, the target named is hemagglutinin (HA) of influenza virus H5N1 A/Vietnam/1194/04 (influenza A virus). Description: cell-based or functional assay.
For B11, the average neutralization titer was 12.8 nM.
B12: the average neutralization titer was determined as 21.6 nM.
B13: the average neutralization titer was determined as 12.8 nM.
Still for that read-out and setting: the same measure for B14: 21.6 nM.
The molecule B15 yielded an average neutralization titer of 21.6 nM.
The same measure, in the same setting: in the case of B16 it was 6.5 nM.

For the next test, the target named is hemagglutinin (HA) of influenza virus H7N3 A/NIBRG/60 (A/mallard/Netherlands/12/00) (influenza A virus). Description: cell-based or functional assay.
For B11, the average neutralization titer was 9.1 nM.
The same measure, in the same setting: the same measure for B12: 18.1 nM.
Still for that read-out and setting: the same measure for B13: 15.3 nM; for B14: 12.8 nM; for B15: 30.4 nM.
As to B16, the average neutralization titer was more than 1000 nM.
